Results reported in the DeepSol protein solubility set.

Test: soluble on expression in E. coli; label from the status in PepcDB or PDB records

Sequence | soluble on expression in E. coli
MNFNKLKFGATIGIIGGGQLGKMMAQSAQKMGYKVVVLDPSEDCPCRYVAHEFIQAKYDDEKALNQLGQKCDVITYEFENISAQQLKLLCEKYNIPQGYQAIQLLQDRLTEKETLKSAGTKVVPFISVKESTDIDKAIETLGYPFIVKTRFGGYDGKGQVLINNEKDLQEGFKLIETSECVAEKYLNIKKEVSLTVTRGNNNQITFFPLQENEHRNQILFKTIVPARIDKTAEAKEQVNKIIQSIHFIGTFTVEFFIDSNNQLYVNEIAPRPHNSGHYSIEACDYSQFDTHILAVTGQSLPNSIELLKPAVMMNLLGKDLDLLENEFNEHPEWHLHIYGKSGRKDSRKMGHMTVLTNDVNQTEQDMYAKFEGSN | soluble
MSLKKLDYHFHSHFSADSEELPRKHVTEAIAHGLEEICFTEHRDFYFPGMDFSLNLPEYFQEINRLQAEFKDKIKIKIGLEMGIDLRFKSEINQFIDSAPFDFVIASVHEIGDIEVYDGTEFYLQKIKEEAQREYLLACLDVVQNFENYNSFGHLDYVARYGPYTDKSIKFAENREILFEILRALASKEKALEINTRLFDDPKTEQFYSDLLINFKKLGGKFITLGTDSHIAKRDWLSIHKARTLIKKAGFHELATFSGMKIDKNKKSIKEGHHHHHH | soluble
MAHHHHHHMEAPAVYCVSDAAASLTMADDWIRGLSRQRHRSMCEVDAVFPVSRTRERTEMDEAETASSYSDSVTSVPTNRLQLHMMHRRRLYKQYAMDLSMWADTHSYYQLMMWCHDHHVFVHPTVEMVRHRSAFREHVFEVKEDVDAFTPLLAIPEDLIIGFKDANTESSDPSASTDDRNNLYDAKREAEFHKLNTGENSNADICQFFFASLGMIVSDLITAKSSPLTDPRHLFAELLSKVPTLQNAPYFDEEVVFDSNETCLADVLLQMIRNYINGGPLVNKVPLHELRWAVSVSLSHSTPLSIGAVRSIGIVPVVHLFPHGGTATNAYVVARTSRDKSAEKMAIFFREKFGYDFQGQANAKWIYVVPERPLKAGEAINLQVMAPVCEKDSEAEQMWRLSCGTVPESYMSSAQASARQEAATRFIVEQGEALWKASRAKRLL | not soluble
SSNAKFDQFSSDFQTFNAKFDQFSNDMNAFRSDFQAFKDDFARFNQRFDNFATKYR | soluble
MAHHHHHHMPHHAQDLRHDFTSGILNCHESCAVCLDACLCMYCTASAHHNFLMNDTEGLYLPVCWGLFCVDVGLSAVSSYLPSSLHFHTYFMRSAIRRRYNLHSA | soluble
MAPHPEAAALLARSHRLGADPRNTNYAGGNASAKGTATDPVTGGDVELMWVKGSGGDLGTLTEAGLAVLRLDRLHALKGVYPGVEREDEMVAAFDYCLHGKGGAAPSIDTAMHGLVDAAHVDHLHPDSGIALACAADGEKLTAECFGDSVAWVPWRRPGFQLGLDIAAVKEANPQTIGCVLGGHGITAWGATAEECERNSLHIIRTAEAFLAERGKAEPFGPVIEGYAALEHHHHHH | not soluble
MESFIDRITEETDENFRICRENIPNFETTISPLLNTMKNIKLLLDDAAFDQQKLENNCEETCMNCTKSQLNDFLGIKVEASTIVDVKSQLVPQSKESSALVETNEPNEQGLSSKPKENDIRIVPQITDEEFKTIPKYQLGRLTLEMMNEIVSKMDDFLMKKSKILGKTNKQLTRSDREVLDNWRELEMKARKRLPTTLFFIETDIRPMLQDRLRPSFAKAIPCLRHIRRIREERCGPLTFYYP | not soluble
GSHMLPSCKEDEYPVGSECCPKCSPGYRVKEACGELTGTVCEPCPPGTYIAHLNGLSKCLQCQMCDPAMGLRASRNCSRTENAVCGCSPGHFCIVQDGDHCAACRAYA | soluble
MIERSLNATEKAIESIREGELVRRHTDLELRDMQISMNEDFDRIRGMMHELDEQIHKDRSGNSKWMNQKMEKAKATADQALASTLMVKDVQLLEKKVNILKESVVQVNKSFYKYEKDVDMNDLMDQVIDMVHRTEKKEQDALEAHATDEQAIGKAFRGAIEGLYGLKSSNSKVMEEAKLLAGEMRVFRDAASNKNFHTMISRIASNTATSGVPLKYSSGPESSFSTSAYTSFSKSANNSSMSGSN | not soluble
MSLHEYELNQDLLAENKRLAEKNREALRESGTVAVNIMGAIGSGKTLLIERTIERIGNEVKIGAMLGDVVSKADYERVRRFGIKAEAISTGKECHLDAHMIYHRLKKFSDCDLLLIENVGNLICPVDFDLGENYRVVMVSVTEGDDVVEKHPEIFRVADLIVINKVALAEAVGADVEKMKADAKLINPRAKIIEMDLKTGKGFEEWIDFLRGILNVHSDSGQNEGGSHHHHHH | soluble
MAHHHHHHMPARWHNKQKKGSNGHKRPSTGGNGSAARRDIGFIPPGASAVQNSSAHHADTFMYRFPQNFPVPRRLRHAPTSLVEAVNDFHFAMMNDRPRNEFYYELLKRHVTPETGVLEIGAGSGLLSLMAAQLGAKWVVAVEGSAEMAKLARANICANKMEHKVTVLHMLSTELTLRHLPDRPDVMVSEILGTLLLGESALDYIADVRERLLKPTTKIIPQHGTQYAVPIECDTLRDVCAVSGWKGLELSHMTALQDTVSIVFAKQYGFRMSSVPFRRLSEPIALFSVDFASAVRRDIPMNLKLDVKATSSGTAHAMLYYWKAFDGDLVMSTDPADTLNNFPRDMQWGQALQLLDAANGPFPTPVVFTEGEELKFQCHFSSDRVTVHIHLCPTAEAAASPAKTTPTDNDAIKTEKEACEKVNKGKK | soluble
MGSDKIHHHHHHMSAIPIIDIPFDKRHTCWFCGEPCNQHFEYHSQTHTPHPSLAVPACSECAKLAKQHPLTSIWDCRMAVKDALMRIYAKHLAIGINWTEAELAESDFSCNIFEGFKKSAWMMYQIARDRINAPGWPLRLEEIEIDDQGYSAGFEFDGVTYTSVHAAIHYYSTQFTLDPTFFADLVRLVGRARFNYALRLARIHIASAKEMKRQVLTDLEAELI | not soluble
MSLSNKIFTHSLPMRYADFPTLVDALDYAALSSAGMNFYDRRCQLEDQLEYQTLKARAEAGAKRLLSLNLKKGDRVALIAETSSEFVEAFFACQYAGLVAVPLAIPMGVGQRDSWSAKLQGLLASCQPAAIITGDEWLPLVNAATHDNPELHVLSHAWFKALPEADVALQRPVPNDIAYLQYTSGSTRFPRGVIITHREVMANLRAISHDGIKLRPGDRCVSWLPFYHDMGLVGFLLTPVATQLSVDYLRTQDFAMRPLQWLKLISKNRGTVSVAPPFGYELCQRRVNEKDLAELDLSCWRVAGIGAEPISAEQLHQFAECFRQVNFDNKTFMPCYGLAENALAVSFSDEASGVVVNEVDRDILEYQGKAVAPGAETRAVSTFVNCGKALPEHGIEIRNEAGMPVAERVVGHICISGPSLMSGYFGDQVSQDEIAATGWLDTGDLGYLLDGYLYVTGRIKDLIIIRGRNIWPQDIEYIAEQEPEIHSGDAIAFVTAQEKIILQIQCRISDEERRGQLIHALAARIQSEFGVTAAIDLLPPHSIPRTSSGKPARAEAKKRYQKAYAASLNVQESLAEGHHHHHH | soluble
MATMARWERIVEGVKSIALIKRKIISRGKRIALLVDGPNILRKELGVHLEDIVEALSSLGNIRVAKVILNQYAPQSLIEAVSNQGFEPVIVAGEIGVKLAVEAMREVYNPNIDIIALATRNTEFVPIILKAKEKGKETAIIGVEPGFSSALKHAADYVIVLESRGELSEEGNIEDIEEGKGEGGRGRRKNDRLDN | soluble
MQNFTLHTPTKVLFGTGQIAQLTQEIPADARILITYGGGSIKQNGVLDQVHQALKGFDFLEFGGIEPNPTYETLMKAVELCRTEGINFLLAVGGGSVLDGTKFIAAAVNYPQDPWHILETTGRDITEALPMGSVLTLPATGSEANNGAVISRRSTGDKQHFFSPHVQPLFAVLDPVVTYTLPPRQVANGVVDAFVHTIEQYLTYPVDAKVQDRFAEGLLLTLIEEGPKALKDPENYNVRANIMWSATMALNGLIGAGVPQDWATHMLGHELTARHGLDHAQTLAVVLPALLVAKKQQKRAKLLQYAERVWGLREGSEDQRIDAAIEATRHFFESLGVATRLSAYKLDGSSIPDLIKKLEEHGMTKLGEHSDITLADSKRIYEAAV | not soluble
MCLVALAWKTHPRWRLLLAGNRDEFHERPTAPLAQWAAPAERVLAGRDLRSGGSWVGLGLDGRAAVVTNVRDPLATASGRSRGHLIADYLSGSADAATYARELAAAGQEFPPFNLLLCDAERCEHLSNHPALARALAPGIHGMSNGPLDAHWPKTTALTHALAAWCDSGSDDLQPLWTALANPATAADADLPHTGVDRATERLLSAAFIRGASYGTRASTIVAVDHHGHGFIHERRFGPDGVFQGETRLDVAGMHLEHHHHHH | not soluble
KYVDGFLIPIAKDKVNKYREIAQKSSQIWKDLGALEYYECIGDDLDIEELVSFKKVVNASEEETVIFSWIVYESKEQRDKVNEAVMNDPRMKEMMETSEYDLFDYRRMSYGGFKTLVSL | not soluble
MAAKWEKLEGNVGVLTIEVDAKEVNNSIDAAFKKVVKTINVPGFRKGKMPRPLFEQRFGIESLYQDALDIILPKAYGEAIDEAGIFPVAHPEIDIEKFEKNANLIFTAKVTVKPEVKLGEYKGLAVEKVETTVTDEDVENELKSLQERQAELVVKEEGTVENGDTAVIDFEGFVDGEAFEGGKGENYSLAIGSGTFIPGFEEQVIGLKSGESKDVEVSFPEEYHAAELAGKPATFKVTVHEIKTKELPELNDEFAKEADEAVATLDELKAKLRTNLEEGKKHEAEHKVRDEVVELAAANAEIDIPEAMIDTELDRMVREFEQRLSQQGMNLELYYQFTGTDADKLKEQMKEDAQKRVRINLVLEAIIEAENIEVTEEEVTAEVEKMAEMYGMPVDAIKQALGSVDALAEDLKVRKAVDFLVENAA | not soluble
MGSDKIHHHHHHMKYQQKLRNMIDFIGKHLDEELSLESLSEIFCISKFHFHRLFTAFTGLSLQQYIKWLRLKRAAHQLIVDKDQSVINIAINAGFESHEAFSRAFKKACGFSPSQFRQGFGRSYWEQPPYCLPGQSRTDMKVDIKSIDKIRLAVIEHKGDPKLLGESINKLVSWAKSQSINLKPRAGEAFALAYDDPKTTPPSDFRIDLGIKVPENLKLDGVIEKFLPSGRYAVTVHKGSRNNIGDVVYYLYRDWLPNTSEQLGDLPCIFCYYNFDHEVAETELLTECWLLLK | not soluble
AISQDYNINMSGGNDKGTYYAGLGYNRQEGLPIKTFYERYSFVLNASYKITDWLTSSSNFNYNRANWKNMPGSQTSEGNYFGRIMSTPPTVRFQDEDGNPTLGPVAGDGNQNYQPDKWWNFNQSDKFTMVQAFQIDILKNLSVKGTANWYYSESLAESFTRDYENTPGQFVRTRSSSASFSRNFSQTYNVVLNYNQTFAKDHNVAVMLGMEYFDRYSRSFSASGSGAPTDDFADLSLTDNGEGKRSIDSGHSDYRILSYFGRLNYDYKGRYLLSAVFRQDGYSSLLGDNRWGFFPGVSAGWIFGQENFVKNALPFLSFGKLRASYGVNGNATGIGAYDLQGSYNSQKYNGNVGFLIGALPNPGLKWEKTRTAEVGIDMSFFENRLNANFTYYNRLTSDKYANLSLPSTTGFSSIKNNNGKFRNSGVEIELSGKILKTKDWSWDLGGNISFNKNKIVSLPDNGLIRNQQDAAQIYSGRQLSDGTYEKIWVGGNQEGYEPGVLIAYKADGLYRSWDEIPGDLVVTSGNYFGKKMYGPEAWKKLSSAEQKNALPIQPGDVKWRDINGDGMIDNYDQVVVGNTNPHWIGGFNTTLRWKNFQLYGRFDFAFDYWIYDNTTPWFLGCMQGTYNTTKDVFNTWSEENPNAKYPRFVYADQLMNANYYRTSTLFAYKGNYLAIREISLSYSLPKAWANKAYCQKVDVSITGQNLGYITSANVASPEVSSAGSGYALPRTLLFGLNVTF | not soluble
